Assay results from paper PMC10593859 (2023).

What was measured:
Ad26 viral particles [1] = assay: SPR; post-Ad26 vaccination human serum (1:5) flowed over Ad26 first
Ad26 viral particles [2] = assay: as above; remark: listed apart in the source
Ad26 viral particles [3] = assay: SPR; pre-vaccination human serum (1:5) flowed over Ad26 first
Ad26 viral particles [4] = assay: as above; remark: listed apart in the source

B1: recombinant human platelet factor 4 (PF4) (natural protein)
chain: EAEEDGDLQCLCVKTTSQVRPRHITSLEVIKAGPHCPTAQLIATLKNGRKICLDLQAPLYKKIIKKLLES
Kd (Ad26 viral particles [1]): 612 nM
Kd (Ad26 viral particles [2]): 478 nM
Kd (Ad26 viral particles [3]): 233 nM
Kd (Ad26 viral particles [4]): 122 nM
